From IntAct's records for PubMed 31412244

B1: Autophagy-related protein 2 homolog A (Homo sapiens), Q2TAZ0 (parent)
chain: MSRWLWPWSNCVKERVCRYLLHHYLGHFFQEHLSLDQLSLDLYKGSVALRDIHLEIWSVNEVLESMESPLELVEGFVGSIEVAVPWAALLTDHCTVRVSGLQLTLQPRRGPAPGAADSQSWASCMTTSLQLAQECLRDGLPEPSEPPQPLEGLEMFAQTIETVLRRIKVTFLDTVVRVEHSPGDGERGVAVEVRVQRLEYCDEAVRDPSQAPPVDVHQPPAFLHKLLQLAGVRLHYEELPAQEEPPEPPLQIGSCSGYMELMVKLKQNEAFPGPKLEVAGQLGSLHLLLTPRQLQQLQELLSAVSLTDHEGLADKLNKSRPLGAEDLWLIEQDLNQQLQAGAVAEPLSPDPLTNPLLNLDNTDLFFSMAGLTSSVASALSELSLSDVDLASSVRSDMASRRLSAQAHPAGKMAPNPLLDTMRPDSLLKMTLGGVTLTLLQTSAPSSGPPDLATHFFTEFDATKDGPFGSRDFHHLRPRFQRACPCSHVRLTGTAVQLSWELRTGSRGRRTTSMEVHFGQLEVLECLWPRGTSEPEYTEILTFPGTLGSQASARPCAHLRHTQILRRVPKSRPRRSVACHCHSELALDLANFQADVELGALDRLAALLRLATVPAEPPAGLLTEPLPAMEQQTVFRLSAPRATLRLRFPIADLRPEPDPWAGQAVRAEQLRLELSEPQFRSELSSGPGPPVPTHLELTCSDLHGIYEDGGKPPVPCLRVSKALDPKSTGRKYFLPQVVVTVNPQSSSTQWEVAPEKGEELELSVESPCELREPEPSPFSSKRTMYETEEMVIPGDPEEMRTFQSRTLALSRCSLEVILPSVHIFLPSKEVYESIYNRINNDLLMWEPADLLPTPDPAAQPSGFPGPSGFWHDSFKMCKSAFKLANCFDLTPDSDSDDEDAHFFSVGASGGPQAAAPEAPSLHLQSTFSTLVTVLKGRITALCETKDEGGKRLEAVHGELVLDMEHGTLFSVSQYCGQPGLGYFCLEAEKATLYHRAAVDDYPLPSHLDLPSFAPPAQLAPTIYPSEEGVTERGASGRKGQGRGPHMLSTAVRIHLDPHKNVKEFLVTLRLHKATLRHYMALPEQSWHSQLLEFLDVLDDPVLGYLPPTVITILHTHLFSCSVDYRPLYLPVRVLITAETFTLSSNIIMDTSTFLLRFILDDSALYLSDKCEVETLDLRRDYVCVLDVDLLELVIKTWKGSTEGKLSQPLFELRCSNNVVHVHSCADSCALLVNLLQYVMSTGDLHPPPRPPSPTEIAGQKLSESPASLPSCPPVETALINQRDLADALLDTERSLRELAQPSGGHLPQASPISVYLFPGERSGAPPPSPPVGGPAGSLGSCSEEKEDEREEEGDGDTLDSDEFCILDAPGLGIPPRDGEPVVTQLHPGPIVVRDGYFSRPIGSTDLLRAPAHFPVPSTRVVLREVSLVWHLYGGRDFGPHPGHRARTGLSGPRSSPSRCSGPNRPQNSWRTQGGSGRQHHVLMEIQLSKVSFQHEVYPAEPATGPAAPSQELEERPLSRQVFIVQELEVRDRLASSQINKFLYLHTSERMPRRAHSNMLTIKALHVAPTTNLGGPECCLRVSLMPLRLNVDQDALFFLKDFFTSLVAGINPVVPGETSAEARPETRAQPSSPLEGQAEGVETTGSQEAPGGGHSPSPPDQQPIYFREFRFTSEVPIWLDYHGKHVTMDQVGTFAGLLIGLAQLNCSELKLKRLCCRHGLLGVDKVLGYALNEWLQDIRKNQLPGLLGGVGPMHSVVQLFQGFRDLLWLPIEQYRKDGRLMRGLQRGAASFGSSTASAALELSNRLVQAIQATAETVYDILSPAAPVSRSLQDKRSARRLRRGQQPADLREGVAKAYDTVREGILDTAQTICDVASRGHEQKGLTGAVGGVIRQLPPTVVKPLILATEATSSLLGGMRNQIVPDAHKDHALKWRSDSAQD
partner: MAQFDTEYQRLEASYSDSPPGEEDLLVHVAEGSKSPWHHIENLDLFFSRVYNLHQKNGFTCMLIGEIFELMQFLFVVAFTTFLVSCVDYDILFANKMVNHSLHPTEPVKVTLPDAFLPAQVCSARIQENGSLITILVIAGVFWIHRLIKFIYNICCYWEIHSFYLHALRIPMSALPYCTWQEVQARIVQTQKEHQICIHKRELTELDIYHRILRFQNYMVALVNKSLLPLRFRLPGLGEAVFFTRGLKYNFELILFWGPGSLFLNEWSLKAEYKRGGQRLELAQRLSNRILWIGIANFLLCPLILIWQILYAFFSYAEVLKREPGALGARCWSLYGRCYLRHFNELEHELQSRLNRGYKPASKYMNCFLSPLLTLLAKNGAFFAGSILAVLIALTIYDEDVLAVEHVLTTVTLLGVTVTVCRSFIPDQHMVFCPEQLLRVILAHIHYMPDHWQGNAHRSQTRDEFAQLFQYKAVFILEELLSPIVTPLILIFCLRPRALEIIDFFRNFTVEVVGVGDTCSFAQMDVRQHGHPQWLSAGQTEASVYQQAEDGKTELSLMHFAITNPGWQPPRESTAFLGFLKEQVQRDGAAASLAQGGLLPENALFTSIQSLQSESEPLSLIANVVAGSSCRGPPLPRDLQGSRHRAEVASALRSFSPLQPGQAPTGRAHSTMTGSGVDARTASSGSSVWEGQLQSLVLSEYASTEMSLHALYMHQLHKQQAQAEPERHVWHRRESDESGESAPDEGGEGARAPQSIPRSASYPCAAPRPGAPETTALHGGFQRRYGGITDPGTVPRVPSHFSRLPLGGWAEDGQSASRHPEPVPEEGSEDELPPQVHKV
B2: Autophagy-related protein 2 homolog A (Homo sapiens), Q2TAZ0 (parent)
chain: B1 chain
partner: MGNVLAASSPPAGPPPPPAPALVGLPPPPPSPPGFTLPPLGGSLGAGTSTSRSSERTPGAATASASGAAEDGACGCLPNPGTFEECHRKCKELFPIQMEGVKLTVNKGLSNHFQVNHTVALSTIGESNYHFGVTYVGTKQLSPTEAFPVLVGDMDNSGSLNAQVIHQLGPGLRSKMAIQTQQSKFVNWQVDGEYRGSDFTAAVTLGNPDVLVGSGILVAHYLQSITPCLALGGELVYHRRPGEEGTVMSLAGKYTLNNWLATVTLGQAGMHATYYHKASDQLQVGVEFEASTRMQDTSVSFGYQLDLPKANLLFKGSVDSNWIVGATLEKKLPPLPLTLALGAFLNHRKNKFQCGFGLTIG

Variants of: B1
Details: with atg9a_human ATG9A

| effect of a mutation on the interaction | Variant |
| --- | --- |
| disrupting interaction strength | Y1395A;F1396A;S1397A |

Variants of: B2
Details: with tom40_human TOMM40, O96008

| effect of a mutation on the interaction | Variant |
| --- | --- |
| decreasing interaction strength | R1777A;R1780A;R1784A;L1798A;L1800A;L1804A |
| decreasing interaction strength | R1777A;R1780A;R1784A |
| disrupting interaction strength | L1798A;L1800A;L1804A |
